Laboratory results reported in patent US20040001842A1.
One block for each molecule: values may come before it.

Assays:
[1] = target: human CCK-B/gastrin receptor (human) (UniProt P32239); assay: 125I-labelled serum injected into nude mice with C170HM2 liver xenografts, CPM/g
[2] = target: CCK-B/gastrin receptor on AR42J cells (rat pancreatic adenocarcinoma) (rat) (UniProt P30553); assay: radioligand inhibition on AR42J cells, GnRH against 125I-hG17
[3] = target: affinity purified rabbit Anti-GRE11 antibodies; assay: quantitative immunofluorescence on H69 cells, 1:1 mixture of GRE1 and GRE6 as inhibitor, relative to GnRH
[4] = target: affinity purified rabbit Anti-GRE11 antibodies; assay: quantitative immunofluorescence on H69 cells, peptide as inhibitor, relative to GnRH
[5] = target: Affinity purified rabbit anti-GRE1 antibodies; assay: inhibition ELISA, peptide in solution against GRE1-Ser-BSA on the plate
[6] = target: Affinity purified rabbit anti-GRE1 antibodies; assay: inhibition ELISA, mixture of GRE1 EPT and Ser spacer in solution against GRE1-Ser-BSA on the plate

Chain of UniProt P30553 (P30553 whole entry): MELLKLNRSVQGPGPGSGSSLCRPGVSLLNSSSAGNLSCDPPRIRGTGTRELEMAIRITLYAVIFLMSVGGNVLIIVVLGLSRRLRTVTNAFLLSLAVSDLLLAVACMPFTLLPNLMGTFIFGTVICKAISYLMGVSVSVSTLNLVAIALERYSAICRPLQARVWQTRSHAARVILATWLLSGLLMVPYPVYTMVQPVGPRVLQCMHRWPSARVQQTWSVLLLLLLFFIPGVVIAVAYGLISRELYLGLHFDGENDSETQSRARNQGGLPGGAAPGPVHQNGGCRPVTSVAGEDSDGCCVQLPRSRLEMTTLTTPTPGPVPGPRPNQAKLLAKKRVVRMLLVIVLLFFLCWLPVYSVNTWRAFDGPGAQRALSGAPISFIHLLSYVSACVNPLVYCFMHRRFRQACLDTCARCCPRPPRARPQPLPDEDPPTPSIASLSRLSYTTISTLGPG

- liver tumor/liver ratio of radiolabel [1]: 1
Molecule: normal rabbit serum

- % inhibition of 125I-hG17 binding [2]: 6%
Molecule: gonadotropin releasing hormone (from UniProt P01148 24-33) (peptide)

Further lines, the molecule ahead of its results:

Molecule: KLNRSVQGTGPGPGASL [GRE1 EPT peptide]
- percent inhibition of antibody binding [3]: 49%
- percent inhibition of antibody binding [4]: 57%
- % inhibition [5]: 60%
- % inhibition [6]: 60%

Molecule: MELLKLNRSVQGC [GRE6 peptide]
- percent inhibition of antibody binding [4]: 4%

Molecule: MELLKLNRSVQGTGPGPGASLC [GRE11 peptide]
- percent inhibition of antibody binding [4]: 84%
